Results from patent publication US20260209293A1 (Novo Nordisk, published 2026).
*1 amine or outer side, *2 acyl side, *3 side chain or, on linkers, in order; H or OH if unused. The star is where a group is joined. C18 diacid = O=C(O)CCCCCCCCCCCCCCCCC(=O)*; γGlu = O=C(O)[C@H](CCC(=O)[*:2])N[*:1]

T1: human amylin-3(a) receptor (human, UniProt P30988 25-474; O60896 24-148)
T1 sequence (looked up) 1: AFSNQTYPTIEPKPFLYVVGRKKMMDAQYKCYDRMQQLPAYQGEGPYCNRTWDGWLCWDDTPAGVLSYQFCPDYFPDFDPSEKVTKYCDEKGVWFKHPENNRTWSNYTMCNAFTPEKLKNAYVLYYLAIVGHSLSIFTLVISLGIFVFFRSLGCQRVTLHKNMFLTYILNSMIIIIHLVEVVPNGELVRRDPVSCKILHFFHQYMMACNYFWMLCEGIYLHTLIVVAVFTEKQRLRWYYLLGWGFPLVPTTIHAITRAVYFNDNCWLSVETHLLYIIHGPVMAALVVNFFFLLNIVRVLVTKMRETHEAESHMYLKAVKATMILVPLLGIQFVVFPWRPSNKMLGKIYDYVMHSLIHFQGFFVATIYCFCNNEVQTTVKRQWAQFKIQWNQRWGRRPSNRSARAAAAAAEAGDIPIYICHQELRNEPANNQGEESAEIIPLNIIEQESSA
T1 sequence (looked up) 2: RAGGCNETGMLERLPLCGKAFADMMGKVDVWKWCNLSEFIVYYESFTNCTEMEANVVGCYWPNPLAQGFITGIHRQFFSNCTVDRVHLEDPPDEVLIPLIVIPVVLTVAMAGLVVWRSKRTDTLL

T2: human calcitonin receptor (a) (human, UniProt P30988 25-474)
T2 sequence (looked up): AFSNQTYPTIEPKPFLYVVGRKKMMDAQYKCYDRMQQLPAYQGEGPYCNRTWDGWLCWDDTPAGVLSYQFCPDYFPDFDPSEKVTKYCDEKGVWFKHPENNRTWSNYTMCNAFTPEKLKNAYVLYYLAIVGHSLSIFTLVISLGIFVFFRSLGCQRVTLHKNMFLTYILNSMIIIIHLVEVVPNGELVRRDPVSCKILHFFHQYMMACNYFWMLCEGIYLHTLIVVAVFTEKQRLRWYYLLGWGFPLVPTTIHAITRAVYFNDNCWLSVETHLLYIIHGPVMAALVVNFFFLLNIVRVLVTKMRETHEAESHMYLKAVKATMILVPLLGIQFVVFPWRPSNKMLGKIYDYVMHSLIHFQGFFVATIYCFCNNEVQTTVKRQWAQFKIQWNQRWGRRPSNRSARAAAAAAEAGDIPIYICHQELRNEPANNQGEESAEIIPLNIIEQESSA


Experiments:
[1] = biological target: T1, human amylin-3(a) receptor; experiment: cell-based or functional assay
[2] = biological target: T2, human calcitonin receptor (a); experiment: cell-based or functional assay

| hAmyR3 potency, EC50 (pM); CRE-luciferase reporter in BHK cells [1] [pM] | hCalcR potency, EC50 (pM); CRE-luciferase reporter in BHK cells [2] [pM] | Binder |
| --- | --- | --- |
| 1.36 | 1.58 | {C18 diacid-γGlu}-AGSLSTAQTARLAEFLHHSSDNFGPILPPTDVGSNTP-NH2 (SMILES CC[C@H](C)[C@H](NC(=O)[C@@H]1CCCN1C(=O)CNC(=O)[C@H](Cc1ccccc1)NC(=O)[C@H](CC(N)=O)NC(=O)[C@H](CC(=O)O)NC(=O)[C@H](CO)NC(=O)[C@H](CO)NC(=O)[C@H](Cc1c[nH]cn1)NC(=O)[C@H](Cc1c[nH]cn1)NC(=O)[C@H](CC(C)C)NC(=O)[C@H](Cc1ccccc1)NC(=O)[C@H](CCC(=O)O)NC(=O)[C@H](C)NC(=O)[C@H](CC(C)C)NC(=O)[C@H](CCCNC(=N)N)NC(=O)[C@H](C)NC(=O)[C@@H](NC(=O)[C@H](CCC(N)=O)NC(=O)[C@H](C)NC(=O)[C@@H](NC(=O)[C@H](CO)NC(=O)[C@H](CC(C)C)NC(=O)[C@H](CO)NC(=O)CNC(=O)[C@H](C)NC(=O)CC[C@H](NC(=O)CCCCCCCCCCCCCCCCC(=O)O)C(=O)O)[C@@H](C)O)[C@@H](C)O)C(=O)N[C@@H](CC(C)C)C(=O)N1CCC[C@H]1C(=O)N1CCC[C@H]1C(=O)N[C@H](C(=O)N[C@@H](CC(=O)O)C(=O)N[C@H](C(=O)NCC(=O)N[C@@H](CO)C(=O)N[C@@H](CC(N)=O)C(=O)N[C@H](C(=O)N1CCC[C@H]1C(N)=O)[C@@H](C)O)C(C)C)[C@@H](C)O) |
| 1.28 | 1.63 | {C18 diacid-γGlu}-ASHLSTAQTARLAEFLHHSSDNFGPILPPTDVGSNTP-NH2 (SMILES CC[C@H](C)[C@H](NC(=O)[C@@H]1CCCN1C(=O)CNC(=O)[C@H](Cc1ccccc1)NC(=O)[C@H](CC(N)=O)NC(=O)[C@H](CC(=O)O)NC(=O)[C@H](CO)NC(=O)[C@H](CO)NC(=O)[C@H](Cc1c[nH]cn1)NC(=O)[C@H](Cc1c[nH]cn1)NC(=O)[C@H](CC(C)C)NC(=O)[C@H](Cc1ccccc1)NC(=O)[C@H](CCC(=O)O)NC(=O)[C@H](C)NC(=O)[C@H](CC(C)C)NC(=O)[C@H](CCCNC(=N)N)NC(=O)[C@H](C)NC(=O)[C@@H](NC(=O)[C@H](CCC(N)=O)NC(=O)[C@H](C)NC(=O)[C@@H](NC(=O)[C@H](CO)NC(=O)[C@H](CC(C)C)NC(=O)[C@H](Cc1c[nH]cn1)NC(=O)[C@H](CO)NC(=O)[C@H](C)NC(=O)CC[C@H](NC(=O)CCCCCCCCCCCCCCCCC(=O)O)C(=O)O)[C@@H](C)O)[C@@H](C)O)C(=O)N[C@@H](CC(C)C)C(=O)N1CCC[C@H]1C(=O)N1CCC[C@H]1C(=O)N[C@H](C(=O)N[C@@H](CC(=O)O)C(=O)N[C@H](C(=O)NCC(=O)N[C@@H](CO)C(=O)N[C@@H](CC(N)=O)C(=O)N[C@H](C(=O)N1CCC[C@H]1C(N)=O)[C@@H](C)O)C(C)C)[C@@H](C)O) |
| 0.81 | 1.01 | {C18 diacid-γGlu}-AGSLSTAQTARLAEFLHHFGPILPPTDVGSETP-NH2 (SMILES CC[C@H](C)[C@H](NC(=O)[C@@H]1CCCN1C(=O)CNC(=O)[C@H](Cc1ccccc1)NC(=O)[C@H](Cc1c[nH]cn1)NC(=O)[C@H](Cc1c[nH]cn1)NC(=O)[C@H](CC(C)C)NC(=O)[C@H](Cc1ccccc1)NC(=O)[C@H](CCC(=O)O)NC(=O)[C@H](C)NC(=O)[C@H](CC(C)C)NC(=O)[C@H](CCCNC(=N)N)NC(=O)[C@H](C)NC(=O)[C@@H](NC(=O)[C@H](CCC(N)=O)NC(=O)[C@H](C)NC(=O)[C@@H](NC(=O)[C@H](CO)NC(=O)[C@H](CC(C)C)NC(=O)[C@H](CO)NC(=O)CNC(=O)[C@H](C)NC(=O)CC[C@H](NC(=O)CCCCCCCCCCCCCCCCC(=O)O)C(=O)O)[C@@H](C)O)[C@@H](C)O)C(=O)N[C@@H](CC(C)C)C(=O)N1CCC[C@H]1C(=O)N1CCC[C@H]1C(=O)N[C@H](C(=O)N[C@@H](CC(=O)O)C(=O)N[C@H](C(=O)NCC(=O)N[C@@H](CO)C(=O)N[C@@H](CCC(=O)O)C(=O)N[C@H](C(=O)N1CCC[C@H]1C(N)=O)[C@@H](C)O)C(C)C)[C@@H](C)O) |
